# Experimental data: PMC6335422 (Nature Communications, 2019)
# Where no end group is shown, it is not given here.
# T1: Erh1 (Erh1wt) (Schizosaccharomyces pombe, UniProt G2TRN4)
# T1 construct: A region of Erh1 (residues 1–104) was amplified by PCR; made in house; host or cells: Escherichia coli BL21 (Gold)
# T1 sequence (G2TRN4 1-104): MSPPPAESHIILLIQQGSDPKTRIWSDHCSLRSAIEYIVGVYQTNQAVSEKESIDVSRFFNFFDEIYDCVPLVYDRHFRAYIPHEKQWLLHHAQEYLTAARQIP
# Legend:
# Erh1 D68A = target: T2, Erh1 D68A (Schizosaccharomyces pombe, UniProt G2TRN4, D68A); assay: ITC, Mmi1 peptide titrated into Erh1 D68A; assay type: binding, S. pombe
# T2 construct: A region of Erh1 (residues 1–104) was amplified by PCR; made in house; host or cells: Escherichia coli BL21 (Gold)
# T2 sequence (G2TRN4 whole entry D68A, the tested form may be a part): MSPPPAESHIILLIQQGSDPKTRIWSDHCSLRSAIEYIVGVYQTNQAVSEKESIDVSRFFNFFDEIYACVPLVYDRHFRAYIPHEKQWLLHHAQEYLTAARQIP
# Description: (§1) The titration protocol consisted of a single initial injection of 1 µl, followed by 19 injections of 2 µl SUMO-tagged Mmi1 peptides into the sample cell containing Erh1 protein. Thermodynamic data were analyzed with a single-site binding model using MicroCal PEAQ-ITC Analysis Software provided by the manufacturer.
# Erh1 D27A = target: T3, Erh1 D27A (Schizosaccharomyces pombe, UniProt G2TRN4, D27A); assay: ITC, Mmi1 peptide titrated into Erh1 D27A; assay type: binding, S. pombe
# T3 construct: A region of Erh1 (residues 1–104) was amplified by PCR; made in house; host or cells: Escherichia coli BL21 (Gold)
# T3 sequence (G2TRN4 whole entry D27A, the tested form may be a part): as the sequence (G2TRN4 whole entry D68A, the tested form may be a part) above, with D27A, A68D counted along it
# Description: as §1
# [1] = assay type: physicochemical; conditions: pH 7.5
# Erh1 R23A = target: T4, Erh1 R23A (Schizosaccharomyces pombe, UniProt G2TRN4, R23A); assay: ITC, Mmi1 peptide titrated into Erh1 R23A; assay type: binding, S. pombe
# T4 construct: A region of Erh1 (residues 1–104) was amplified by PCR; made in house; host or cells: Escherichia coli BL21 (Gold)
# T4 sequence (G2TRN4 whole entry R23A, the tested form may be a part): as the sequence (G2TRN4 whole entry D68A, the tested form may be a part) above, with R23A, A68D counted along it
# Description: as §1
# Erh1 = assay: GST pull-down of Erh1 with GST-tagged Mmi1 fragments, Coomassie; assay type: binding, S. pombe; conditions: GST-Mmi1 fusion incubated with Erh1, glutathione-agarose, SDS-PAGE
# Source text: Fig. 1 Mmi1 interacts with Erh1 in a 2:2 stoichiometry. a Shown is a schematic representation of the domain architecture of Mmi1. The disorder score from DISOPRED3 Server[62] and the conservation score are shown below. The conservation score is generated by a Protein Residue Conservation Prediction Server[63] from the sequence alignment of Mmi1 orthologues from S. pombe, S. cryophilus, S. octosporus, and S. japonicus. b–d Interactions of GST tagged Mmi1 peptides (GST-Mmi1) with Erh1 visualized by Coomassie blue staining. The indicated GST-Mmi1 fusion proteins or GST alone were incubated with Erh1. The complexes were collected with glutathione-agarose resin and bound proteins were eluted and then subjected to SDS-PAGE. GST or GST-Mmi1 fusion proteins without Erh1 are shown as a negative control. Source data are provided as a Source Data file. e The raw ITC titration data of Erh1 with SUMO tagged Mmi1^95–122 and its fitting curve are shown. KD dissociation constant, DP differential power, N binding stoichiometry, ΔH binding enthalpy. f ITC fitting curves of Erh1 using SUMO tagged Mmi1^95–122 (magenta), Mmi1^106–122 (blue) and Mmi1^95–111 (green) are shown. g Size-exclusion analysis of Erh1 (magenta) and Erh1-Mmi1^95–122 (blue). Marker sizes are 62.9 KDa (Albumin), 46.7 KDa (Ovalbumin), 20.3 KDa (Chymotrypsinogen), 14.6 KDa (Ribonuclease A). Also shown are theoretical monomer sizes (kDa) of Erh1 protein and Mmi1^95–122 peptide TEXT PRINTED IN THE PICTURE: (e) Mmi1^95–122 - Erh1: KD (μM) 0.83±0.19; N (sites) 0.90±0.01; ΔH (kJ per mol) −106±3.02 | (f) Mmi1^95–122: Erh1 KD (μM): 0.83±0.19 | (f) Mmi1^106–122: Erh1 KD (μM): 9.94±1.19 | (f) Mmi1^95–111: Erh1 KD (μM): no binding | (g) Erh1: 13.2 kDa | (g) Mmi1^95–122: 3.5 kDa
# A region of Erh1 (residues 1–104) was amplified by PCR from the S. pombe genome and cloned into a modified pET28a (Novagen) vector without a thrombin protease cleavage site (p28a). GST-Mmi1^YTH was sub-cloned from a Mmi1^YTH-p28a construct to a modified PGex-4T1 vector with a TEV protease cleavage site (Tev4T1). […]
# Erh1 (Erh1wt) = target: T1, Erh1 (Erh1wt); assay: Isothermal titration calorimetry (ITC), SUMO-tagged Mmi1 peptides titrated into wild-type Erh1; assay type: binding, S. pombe; conditions: Erh1wt, ITC, 293 K, 20 mM Tris-HCl pH 7.5, 150 mM NaCl, SUMO-tagged Mmi1 peptide, single-site model
# Description: as §1
# Erh1 E85A = target: T5, Erh1 E85A (Schizosaccharomyces pombe, UniProt G2TRN4, E85A); assay: ITC, Mmi1 peptide titrated into Erh1 E85A; assay type: binding, S. pombe; conditions: 293 K, pH 7.5
# T5 construct: A region of Erh1 (residues 1–104) was amplified by PCR; made in house; host or cells: Escherichia coli BL21 (Gold)
# T5 sequence (G2TRN4 whole entry E85A, the tested form may be a part): as the sequence (G2TRN4 whole entry D68A, the tested form may be a part) above, with A68D, E85A counted along it
# Description: as §1
# Erh1-Mmi1 interaction = assay: Co-immunoprecipitation of Erh1-GFP and FLAG-Mmi1 from yeast cells; assay type: cell-based, S. pombe; conditions: FLAG-Mmi1 WT replaced with mutant; Erh1-GFP; YEA medium, 32 °C
# Description: Cells were grown to mid-log phase in rich YEA medium at 32 °C, harvested, and flash-frozen in liquid nitrogen prior to extract preparations. Extracts prepared from yeast cells expressing epitope tagged proteins under the control of native gene promoters were used for immunoprecipitations and Western blot analyses as described. Total protein extracts for western blotting analyses were prepared by trichloroacetic acid (TCA) precipitation. Briefly, cells were lysed using glass beads in 20% TCA buffer. Next, lysates were diluted using 5% TCA buffer and total protein pellets were concentrated by centrifugation at 21,000×g for 5 min. Precipitated protein was dissolved in sodium dodecyl sulfate (SDS) sample buffer prior to resolution in a polyacrylamide gel. For immunoprecipitation experiments, cells were lysed using glass beads in 2X HC lysis buffer (300 mM HEPES buffer pH 7.6, 100 mM KCl, 2 mM EDTA, 0.2% NP-40, and 0.2 mM DTT) containing protease inhibitor cocktail (11697498001, Roche) and 2 mM PMSF. Lysate cleared of cellular debris was incubated with antibody-conjugated beads for immunoprecipitation. […]
Molecule,"ΔH (binding enthalpy) (Erh1 D68A; Erh1 D68A, 293 K, pH 7.5) [kJ per mol]",affinity (in words) (Erh1 D68A; Erh1^D68A mutant),binding affinity (in words) (Erh1 D27A; Erh1 Asp27 substituted with alanine),"ΔH (binding enthalpy) (Erh1 D27A; Erh1 D27A, 293 K, pH 7.5) [kJ per mol]",solubility of synthesized peptide [1],binding affinity (in words) (Erh1 R23A; Erh1 Arg23 substituted with alanine),"ΔH (binding enthalpy) (Erh1 R23A; Erh1 R23A, 293 K, pH 7.5) [kJ per mol]",interaction with Erh1 (GST pull-down) (Erh1),ΔH (binding enthalpy) (Erh1 (Erh1wt)) [kJ per mol],ΔH (binding enthalpy) (Erh1 (Erh1wt); listed as Mmi195-11 2) [kJ per mol],ΔH (binding enthalpy) (Erh1 E85A) [kJ per mol],Erh1-Mmi1 interaction (co-immunoprecipitation) (Erh1-Mmi1 interaction)
"Mmi1^95–122: Mmi1 fragment, residues 95–122, Erh1-interacting domain (EID) ({SUMO}-GKYDFSRHCTDYGHSYEWPYFRSLRRES; not fully specified)",-47.6±1.30,reduced,significantly reduced the binding affinity,-58.8±1.58,could not be dissolved in the interaction buffer,significantly reduced the binding affinity,-24.2±4.87,sufficient for interaction,−106±3.02,-106±3.02,-81.9±1.70,–
"mutant Mmi^W112A protein: full-length Mmi1 carrying W112A, expressed in S. pombe (protein, left off: FLAG, end not stated, kept, full-length Mmi1 carrying W112A, expressed in S. pombe) MSNTNFSTSRSSKSIPELPNLEALRSLWPPPSLNESGDTRSVWTTHTGEPVASSVLSTSGSNNFSSPLKRPAPESHDAPIGRRLMVDDPRLIKHGKYDFSRHCTDYGHSYEAPYFRSLRRESMLYHTSGSYPESQPPYSSYSTDAPHYYHAGSESSAYYDSRSRLHGIQPPPKRRTLSPPPRRLADPVVVGSSRYVEEEVYRRPPYTLASEVPSSASAYQAGYSSYPVRSSPQLSHEDTRHGIASSGSTRYPFVPANTRASHSPSLLEPYAHSLPSSVAPVGAYPEKSSYLLSNSSNDSASRKEKPKARASTPPPLNFSRASEHRNEKGERISMINPRVVLDENGISHRSRYFIMLCDNETAIAHAKKTSIWAVKKDSSKRISDAYKKASVYFIFVAQQTYNALGYAQVVSDLNSTELPFWSDSSHAGGVRIKWIKTCNLFSAEISEIVSHMDHGSEARDGMEMMYDEGSRLCTLINYAIMKRIGRDR",–,–,–,–,–,–,–,–,–,–,–,drastically diminished the Erh1-Mmi1 interaction
